# Measured values published in paper PMC7736783 (Nucleic Acids Research, 2020).
# B1: methylated DNA duplex 15 nt (dsDNA)
# DNA 1: GGAATCGGCTCATGC
# DNA 2: GCATGAGCCGATTCC
# modifications: 5-methylcytosine at C6 of strand 1 (printed mC in CpG); methylation of the complementary strand not stated
# Biological target: MTA1 (BAH-ELM2-SANT-ZnF);HDAC1;MBD2 (Homo sapiens?;Homo sapiens?;Homo …, UniProt Q13330;Q13547;Q9UBB5 1-453;1-482;145-411, ||)
# Test: EMSA; 1 uM DNA with 1- to 10-fold excess of complex; single bound species; EMSA: 20 mM HEPES pH 7.0, 75 mM potassium acetate, 2 mM DTT, 20 min on ice; 5% acrylamide gel in 0.5x TB
# Settings: protein: recombinant;recombinant;recombinant; tags: His10-Flag3 N-terminal, removed by TEV;none;none; chain copies: 2;2;1; label: none (ethidium bromide stain); blunt (annealed complementary oligonucleotides)
# MTA1 (BAH-ELM2-SANT-ZnF);HDAC1;MBD2, sequence (Q13330 1-453, chain 1 of 3): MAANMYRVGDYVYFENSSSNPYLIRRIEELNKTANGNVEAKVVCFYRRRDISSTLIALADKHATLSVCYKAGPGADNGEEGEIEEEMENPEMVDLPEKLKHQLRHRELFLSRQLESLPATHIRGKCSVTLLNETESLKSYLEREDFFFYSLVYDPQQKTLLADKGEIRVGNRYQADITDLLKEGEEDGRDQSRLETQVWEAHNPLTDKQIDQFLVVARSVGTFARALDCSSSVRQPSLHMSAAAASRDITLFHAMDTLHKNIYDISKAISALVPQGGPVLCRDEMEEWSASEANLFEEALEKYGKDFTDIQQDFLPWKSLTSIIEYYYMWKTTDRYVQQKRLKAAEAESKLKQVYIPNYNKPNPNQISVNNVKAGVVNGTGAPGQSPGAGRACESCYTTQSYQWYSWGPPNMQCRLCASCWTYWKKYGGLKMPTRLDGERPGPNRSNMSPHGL
# MTA1 (BAH-ELM2-SANT-ZnF);HDAC1;MBD2, sequence (Q13547 whole entry, chain 2 of 3): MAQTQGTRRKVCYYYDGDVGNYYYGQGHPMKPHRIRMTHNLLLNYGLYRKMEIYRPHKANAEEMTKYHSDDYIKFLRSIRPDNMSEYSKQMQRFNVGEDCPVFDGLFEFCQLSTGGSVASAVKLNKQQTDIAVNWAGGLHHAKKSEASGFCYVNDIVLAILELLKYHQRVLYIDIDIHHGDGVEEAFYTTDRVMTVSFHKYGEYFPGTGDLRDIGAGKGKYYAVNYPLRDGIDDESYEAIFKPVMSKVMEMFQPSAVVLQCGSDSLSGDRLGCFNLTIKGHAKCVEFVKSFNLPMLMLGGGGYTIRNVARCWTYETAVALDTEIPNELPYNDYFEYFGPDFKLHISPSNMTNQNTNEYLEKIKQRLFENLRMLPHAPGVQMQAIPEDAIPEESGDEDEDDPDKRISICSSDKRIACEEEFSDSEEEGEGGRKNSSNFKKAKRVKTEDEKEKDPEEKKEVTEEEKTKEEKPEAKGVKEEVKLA
# MTA1 (BAH-ELM2-SANT-ZnF);HDAC1;MBD2, sequence (Q9UBB5 145-411, chain 3 of 3): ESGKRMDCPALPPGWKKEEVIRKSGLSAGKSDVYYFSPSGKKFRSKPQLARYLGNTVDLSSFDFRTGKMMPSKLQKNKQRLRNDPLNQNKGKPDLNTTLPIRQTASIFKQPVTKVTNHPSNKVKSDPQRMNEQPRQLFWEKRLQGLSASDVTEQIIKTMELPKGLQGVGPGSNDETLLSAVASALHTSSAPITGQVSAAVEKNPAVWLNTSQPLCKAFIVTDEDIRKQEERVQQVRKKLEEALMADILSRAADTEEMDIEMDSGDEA
binder,measurement,value
B1,binding result,binds
